Assay results from patent publication US9486502B2, “Methods of administering interferon gamma to absorb fluid from the subretinal space” (The United States of America, as represented by the …, priority 2008, dated 2016).
“Also recorded” adds a separate entry of the source.

Tests used:
hfCHC cells = assay: BrdU incorporation assay, human fetal choroidal cell proliferation; assay type: cell-based
hfRPE cells [1] = assay: cyclic AMP assay (cAMP-screen ELISA); assay type: cell-based, human; conditions: IFNγ 0.5, 5, 50 ng/ml, all time points
Procedure: Intracellular cAMP levels were assayed with a cAMP-screen ELISA system (Applied Biosystems) following the manufacturer's protocol. Briefly, confluent monolayers of hfRPE cells cultured in 24-well plates were starved in SFM for 4 hours and then treated with IFNγ (0.5, 5, and 50 ng/ml), forskolin (10 μM), or forskolin (10 μM) and isobutylmethylxanthine (IBMX; 0.5 mM) for 5 minutes, 30 minutes, 4 hours, 16 hours, or 24 hours. For some of the experiments, cells were treated with IBMX (0.5 mM) for 30 minutes, and then IFNγ or forskolin was added. Cells were lysed and the supernatant collected after centrifugation. Samples were incubated with anti-cAMP antibody and cAMP-AP in a 96-well assay plate; serial dilutions of cAMP served as standards. The plate was incubated with substrate and the chemiluminescence signal measured with a SpectraMax M2 microplate reader (Molecular Devices). The standard curve was obtained by best fit with a weighted 4-parameter logistic curve and the cAMP concentration was calculated and normalized with total protein concentration.

hfRPE cells [2] = assay: immunoblotting of JAK-STAT / MAP kinase signalling proteins in hfRPE; assay type: cell-based, human
Procedure: Immunoblotting was performed as previously described in Li, R. et al., 2007, Invest Ophthalmol Vis Sci, 48, 5722-5732, incorporated by reference in its entirety herein. Primary cultures of hfRPE and native human adult RPE cells were lysed using RIPA buffer (Sigma-Aldrich) supplemented with proteinase inhibitor cocktail (Roche). Total protein in the supernatant was measured (BCA™ protein assay, Pierce Biotechnology) and 20 µg of protein from cell lysate supernatants was electrophoresed on a 4-12% gradient Bis-Tris NuPAGE gel (Invitrogen) under reduced or non-reduced conditions. Resolved proteins were transferred to nitrocellulose membranes (membranes and XCell II™ Blot Module, Invitrogen).
The membranes were incubated with mouse anti-human IFNγ R1 monoclonal antibody (R&D Systems), anti-human IFNγ R2 (Santa Cruz Biotechnology), anti-human IFNAR1, anti-human IFNAR2 (Abcam), anti-IRF1, anti-IRF2, anti-IRF8 (Santa Cruz Biotechnology) or anti-CFTR antibody 217 (Cystic Fibrosis Foundation Therapeutics Inc., Bethesda, Md.), after blocking non-specific binding ((StartingBlock™ T20 (TBS), Pierce Biotechnology). Membranes were then incubated with horseradish peroxidase (HRP) conjugated secondary antibody (Pierce Biotechnology) and visualized using Supersignal® West Dura Extended Duration Substrate (Pierce Biotechnology) and imaged using an Autochemie™ system (UVP, Upland, Calif.). The antibody-specific bands for IRF-1, IRF-2, ICSBP (IRF-8) and GAPDH were around 91 kDa, […], respectively.
For phosphorylation studies, cells were starved for 24 hours in serum-free medium (“SFM,” MEM-α modification medium containing non-essential amino acids and Glutamine-Penicillin-Streptomycin). Cells were treated with IFNγ (5-50 ng/ml) in SFM at various time points at 37° C. and lysed with RIPA buffer supplemented with proteinase inhibitor cocktail (Roche) and Halt™ phosphatase inhibitor cocktail (Pierce Biotechnology). 40 μg of protein was electrophoresed. As in the immunoblotting experiments described above, except that the membranes were incubated with anti-phospho-p38 MAP kinase (Thr180/Tyr182), anti-p38 MAP kinase, anti-phospho-Stat1 (Tyr701), anti-phospho-Stat1 (Ser727) or anti-Stat1 antibodies, respectively (each from Cell signaling Technology, Danvers, Mass.). The antibody-specific bands for STAT1/phospho-STAT1 (Tyr701) were around 84 kDa. GAPDH was blotted together with anti-GAPDH antibody (Abcam) and used as loading control. Cyclohexamide (“CHX”; Sigma-Aldrich), a protein synthesis inhibitor, was used at 62 μM.
For CFTR immunoblotting analysis, confluent monolayers of hfRPE were homogenized on ice in isolation solution (250 mM Sucrose, 10 mM Tris-HCl, 10 mM MgCl2, 1 mM CaCl2, pH 7.4) supplemented with Halt™ protease inhibitor cocktail, EDTA-free. Nuclei and intact cells were removed with centrifugation (900×g for 10 minutes at 4° C., followed by centrifugation at 10,000×g for 5 minutes). Crude plasma membrane proteins were collected after centrifugation at 100,000×g for 1 hour at 4° C.

hfRPE cells [3] = assay: wound healing assay, hfRPE migration; assay type: cell-based, human; conditions: 48 hours, proliferation suppressed with mitomycin C
Procedure: The wound healing assay was used to study the effects of inflammatory cytokines on hfRPE cell migration, as described previously in Li, R., et al. Invest Ophthalmol Vis Sci, 2007, 48, 5722-5732, incorporated herein by reference in its entirety. Cell proliferation was suppressed by incubation with 10 μg/ml mitomycin C (Sigma) for 2 hours before all migration experiments. A circular denuded area (7 mm in diameter) was made in each well using a custom designed cell scraper. After incubation with various inflammatory cytokines for 48 hours, cells were fixed with cold methanol and stained with ethidium homodimer-1 (EthD-1, Invitrogen) according to the manufacturer's instructions. Cell migration was quantified by counting the average number of cells that migrated into the denuded area in 16 microscope fields surrounding the circumference of the denuded area. Each condition was tested in triplicate and repeated using cells from different donors.

B1: IFNγ: pleiotropic cytokine produced by T- and NK-cells; obtained from Peprotech (protein, UniProt P01579 24-161, looked up)
Interferon gamma: QDPYVKEAENLKKYFNAGHSDVADNGTLFLGILKNWKEESDRKIMQSQIVSFYFKLFKNFKDDQSIQKSVETIKEDMNVKFFNSNKKKRDDFEKLTNYSVTDLNVQRKAIHELIQVMAELSPAAKTGKRKRSQMLFRG
effect on hfCHC (human fetal choroidal) cell proliferation (hfCHC cells): stimulatory effect | effect on total intracellular cAMP (hfRPE cells [1]): no apparent effect | STAT1 tyrosine phosphorylation (hfRPE cells [2]; IFNγ 5 ng/ml, 15 minutes): tyrosine phosphorylated | IRF-1 protein (hfRPE cells [2]; IFNγ 4 hours): activated; also recorded: significantly increased | IRF-2 protein (hfRPE cells [2]; IFNγ 4 hours): unaffected; also recorded: no effect | IRF-8 (ICSBP) protein (hfRPE cells [2]; IFNγ-treated hfRPE): below the detection limit; also recorded: no detectable change | effect on CFTR protein level (hfRPE cells [2]; IFNγ-treated hfRPE, not statistically significant): small decrease | STAT1 protein signal (hfRPE cells [2]; after IFNγ treatment): significantly increased; also recorded: significantly up-regulated | effect on JNK or P44/P42 phosphorylation (hfRPE cells [2]; all six time points tested): no effect | period over which IFNγ-induced phosphorylation of STAT1 was observed (hfRPE cells [2]; hfRPE): 2 to 48 h | time to IFNγ-induced phosphorylation of P38 MAPK (hfRPE cells [2]; hfRPE, serum starved 24 hours): 2 to 5 min | effect on hfRPE cell migration (hfRPE cells [3]): significantly inhibited
